The results in this text go back to publication PMC4663267, “A Novel C-Terminal Domain of RecJ is Critical for Interaction with HerA in Deinococcus radiodurans”.

One data set has as its target T1, DrRecJ;DrHerAΔN (Deinococcus radiodurans;Deinococcus …, UniProt D0EM60;Q9RW32 1-705;136-618, |).
T1 sequence 1: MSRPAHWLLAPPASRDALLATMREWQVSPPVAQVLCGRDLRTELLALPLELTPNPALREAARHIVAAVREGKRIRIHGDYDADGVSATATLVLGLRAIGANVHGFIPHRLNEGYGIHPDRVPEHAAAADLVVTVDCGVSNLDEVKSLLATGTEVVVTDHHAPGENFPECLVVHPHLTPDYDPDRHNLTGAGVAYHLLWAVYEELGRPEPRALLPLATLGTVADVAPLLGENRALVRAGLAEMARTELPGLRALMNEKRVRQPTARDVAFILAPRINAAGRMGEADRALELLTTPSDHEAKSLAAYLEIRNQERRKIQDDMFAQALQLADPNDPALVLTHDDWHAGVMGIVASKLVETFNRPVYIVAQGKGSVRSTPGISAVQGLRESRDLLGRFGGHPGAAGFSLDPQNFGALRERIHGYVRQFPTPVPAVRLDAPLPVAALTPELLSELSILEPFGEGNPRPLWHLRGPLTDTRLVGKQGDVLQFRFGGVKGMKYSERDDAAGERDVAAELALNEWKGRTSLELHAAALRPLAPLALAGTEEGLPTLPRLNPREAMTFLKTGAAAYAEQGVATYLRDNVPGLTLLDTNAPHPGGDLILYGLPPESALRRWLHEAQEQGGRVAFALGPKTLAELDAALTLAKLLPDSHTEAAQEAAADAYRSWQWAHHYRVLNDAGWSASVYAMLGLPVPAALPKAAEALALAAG
T1 sequence 2: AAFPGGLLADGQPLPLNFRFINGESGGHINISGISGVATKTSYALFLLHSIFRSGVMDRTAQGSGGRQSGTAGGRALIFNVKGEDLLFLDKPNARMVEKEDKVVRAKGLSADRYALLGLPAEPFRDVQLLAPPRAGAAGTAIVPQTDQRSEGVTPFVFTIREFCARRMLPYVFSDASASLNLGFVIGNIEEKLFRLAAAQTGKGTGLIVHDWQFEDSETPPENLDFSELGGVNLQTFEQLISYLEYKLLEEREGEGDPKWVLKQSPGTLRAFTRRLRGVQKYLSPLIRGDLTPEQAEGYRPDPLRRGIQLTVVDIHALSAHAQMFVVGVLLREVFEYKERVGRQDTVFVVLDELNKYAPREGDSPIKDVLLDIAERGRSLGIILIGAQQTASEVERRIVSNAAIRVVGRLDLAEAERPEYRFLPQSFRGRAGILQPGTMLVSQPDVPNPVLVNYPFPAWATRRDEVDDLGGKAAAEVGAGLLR
The experiment in a line: EMSA; with 4 uM DrNurA (dimer, P6), 800 nM HerAΔN hexamer; stimulation not decreased; EMSA: 100 nM DNA, 80 mM NaCl, 20 mM Tris-HCl pH 7.5, 1 mM DTT, 30 C, 10 min, 5% TBE native PAGE. To be noted: protein: recombinant;recombinant; tags: HMT (His6-MBP) tag removed by TEV;N-terminal His6; copies: 1;6; label: 5' FAM; single strand. For orientation: In EMSA bound probe runs differently from free probe, usually more slowly.

In another data set the target is T2, DrRecJ;DrHerA (Deinococcus radiodurans;Deinococcus …, UniProt D0EM60;Q9RW32 1-705;1-618, |).
T2 sequence 1: T1 sequence 1
T2 sequence 2: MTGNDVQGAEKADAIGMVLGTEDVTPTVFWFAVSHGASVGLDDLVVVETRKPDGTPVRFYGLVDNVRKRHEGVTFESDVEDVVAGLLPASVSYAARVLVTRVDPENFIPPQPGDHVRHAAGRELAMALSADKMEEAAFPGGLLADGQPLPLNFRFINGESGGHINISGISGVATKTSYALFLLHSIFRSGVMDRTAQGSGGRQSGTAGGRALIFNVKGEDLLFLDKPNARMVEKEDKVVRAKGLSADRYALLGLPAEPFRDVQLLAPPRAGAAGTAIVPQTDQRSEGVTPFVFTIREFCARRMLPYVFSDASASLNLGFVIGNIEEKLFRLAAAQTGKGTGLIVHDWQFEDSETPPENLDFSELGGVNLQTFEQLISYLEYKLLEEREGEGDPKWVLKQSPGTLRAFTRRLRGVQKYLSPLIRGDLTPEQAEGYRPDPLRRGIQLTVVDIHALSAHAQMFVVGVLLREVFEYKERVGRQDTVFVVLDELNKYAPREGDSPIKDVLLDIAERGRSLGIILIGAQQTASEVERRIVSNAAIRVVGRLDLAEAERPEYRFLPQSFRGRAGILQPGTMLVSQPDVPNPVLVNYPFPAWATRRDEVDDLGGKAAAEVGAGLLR
The experiment in a line: EMSA; HerA hexamer:RecJ 8:1; super-shift, RecJ binding enhanced; EMSA: 100 nM DNA, 80 mM NaCl, 20 mM Tris-HCl pH 7.5, 1 mM DTT, 30 C, 10 min, 5% TBE native PAGE. Particulars: protein: recombinant;recombinant; tags: HMT (His6-MBP) tag removed by TEV;N-terminal His6; copies: 1;6; label: 5' FAM; single strand.

As to AAAAAAAAAA (ssDNA) [O1 (10 nt ssDNA)], the binding result in the data set with DrRecJ;DrHerAΔN and with DrRecJ;DrHerA was “binds” throughout.
